Experimental data taken from the Human Domainome abundance scans (Beltran et al. 2025).
± gives the uncertainty stated by the source.

B1: Histone-lysine N-methyltransferase SETD2, residues 2382 to 2430; numbered along this chain, Q9BYW2 (parent)
chain: SPPKPKTIVLPPNWKTARDPEGKIYYYHVITRQTQWDPPTWESPGDDAS

Variants of: B1
Test: abundance fitness (aPCA) (normalised: wild type 0, dead -1); higher = more abundant; growth selection in yeast, the domain comes from the species named
Settings: Homo sapiens

Row | Variant | abundance fitness
1 | SPPKPKTIVLYPNWKTARDPEGKIYYYHVITRQTQWDPPTWESPGDDAS [P11Y] | -0.666 ± 0.18
2 | SPPKPKTIVLPANWKTARDPEGKIYYYHVITRQTQWDPPTWESPGDDAS [P12A] | 0.153 ± 0.048
3 | SPPKPKTIVLPCNWKTARDPEGKIYYYHVITRQTQWDPPTWESPGDDAS [P12C] | -0.844 ± 0.23
4 | SPPKPKTIVLPDNWKTARDPEGKIYYYHVITRQTQWDPPTWESPGDDAS [P12D] | -0.013 ± 0.076
5 | SPPKPKTIVLPENWKTARDPEGKIYYYHVITRQTQWDPPTWESPGDDAS [P12E] | 0.105 ± 0.084
6 | SPPKPKTIVLPFNWKTARDPEGKIYYYHVITRQTQWDPPTWESPGDDAS [P12F] | -0.402 ± 0.13
7 | SPPKPKTIVLPGNWKTARDPEGKIYYYHVITRQTQWDPPTWESPGDDAS [P12G] | -0.398 ± 0.039
8 | SPPKPKTIVLPHNWKTARDPEGKIYYYHVITRQTQWDPPTWESPGDDAS [P12H] | -0.528 ± 0.21
9 | SPPKPKTIVLPINWKTARDPEGKIYYYHVITRQTQWDPPTWESPGDDAS [P12I] | -0.451 ± 0.16
10 | SPPKPKTIVLPKNWKTARDPEGKIYYYHVITRQTQWDPPTWESPGDDAS [P12K] | 0.048 ± 0.073
11 | SPPKPKTIVLPMNWKTARDPEGKIYYYHVITRQTQWDPPTWESPGDDAS [P12M] | -0.007 ± 0.036
12 | SPPKPKTIVLPQNWKTARDPEGKIYYYHVITRQTQWDPPTWESPGDDAS [P12Q] | -0.238 ± 0.09
13 | SPPKPKTIVLPRNWKTARDPEGKIYYYHVITRQTQWDPPTWESPGDDAS [P12R] | 0.009 ± 0.045
14 | SPPKPKTIVLPSNWKTARDPEGKIYYYHVITRQTQWDPPTWESPGDDAS [P12S] | -0.195 ± 0.08
15 | SPPKPKTIVLPTNWKTARDPEGKIYYYHVITRQTQWDPPTWESPGDDAS [P12T] | 0.092 ± 0.062
16 | SPPKPKTIVLPWNWKTARDPEGKIYYYHVITRQTQWDPPTWESPGDDAS [P12W] | -0.309 ± 0.062
17 | SPPKPKTIVLPPAWKTARDPEGKIYYYHVITRQTQWDPPTWESPGDDAS [N13A] | -0.581 ± 0.067
18 | SPPKPKTIVLPPCWKTARDPEGKIYYYHVITRQTQWDPPTWESPGDDAS [N13C] | -0.292 ± 0.056
19 | SPPKPKTIVLPPDWKTARDPEGKIYYYHVITRQTQWDPPTWESPGDDAS [N13D] | -0.059 ± 0.075
20 | SPPKPKTIVLPPEWKTARDPEGKIYYYHVITRQTQWDPPTWESPGDDAS [N13E] | -0.61 ± 0.15
21 | SPPKPKTIVLPPFWKTARDPEGKIYYYHVITRQTQWDPPTWESPGDDAS [N13F] | 0.127 ± 0.082
22 | SPPKPKTIVLPPGWKTARDPEGKIYYYHVITRQTQWDPPTWESPGDDAS [N13G] | -0.191 ± 0.055
23 | SPPKPKTIVLPPHWKTARDPEGKIYYYHVITRQTQWDPPTWESPGDDAS [N13H] | -0.052 ± 0.039
24 | SPPKPKTIVLPPLWKTARDPEGKIYYYHVITRQTQWDPPTWESPGDDAS [N13L] | -0.039 ± 0.049
25 | SPPKPKTIVLPPMWKTARDPEGKIYYYHVITRQTQWDPPTWESPGDDAS [N13M] | 0.064 ± 0.094
26 | SPPKPKTIVLPPPWKTARDPEGKIYYYHVITRQTQWDPPTWESPGDDAS [N13P] | -0.692 ± 0.084
27 | SPPKPKTIVLPPQWKTARDPEGKIYYYHVITRQTQWDPPTWESPGDDAS [N13Q] | -0.148 ± 0.13

Row | Variant | abundance fitness
28 | SPPKPKTIVLPPSWKTARDPEGKIYYYHVITRQTQWDPPTWESPGDDAS [N13S] | -0.362 ± 0.078
29 | SPPKPKTIVLPPTWKTARDPEGKIYYYHVITRQTQWDPPTWESPGDDAS [N13T] | -0.123 ± 0.078
30 | SPPKPKTIVLPPVWKTARDPEGKIYYYHVITRQTQWDPPTWESPGDDAS [N13V] | -0.523 ± 0.075
31 | SPPKPKTIVLPPWWKTARDPEGKIYYYHVITRQTQWDPPTWESPGDDAS [N13W] | -0.144 ± 0.097
32 | SPPKPKTIVLPPYWKTARDPEGKIYYYHVITRQTQWDPPTWESPGDDAS [N13Y] | 0.107 ± 0.075
33 | SPPKPKTIVLPPNAKTARDPEGKIYYYHVITRQTQWDPPTWESPGDDAS [W14A] | -0.865 ± 0.054
34 | SPPKPKTIVLPPNCKTARDPEGKIYYYHVITRQTQWDPPTWESPGDDAS [W14C] | -1.02 ± 0.3
35 | SPPKPKTIVLPPNDKTARDPEGKIYYYHVITRQTQWDPPTWESPGDDAS [W14D] | -0.74 ± 0.36
36 | SPPKPKTIVLPPNEKTARDPEGKIYYYHVITRQTQWDPPTWESPGDDAS [W14E] | -0.868 ± 0.078
37 | SPPKPKTIVLPPNGKTARDPEGKIYYYHVITRQTQWDPPTWESPGDDAS [W14G] | -0.855 ± 0.086
38 | SPPKPKTIVLPPNHKTARDPEGKIYYYHVITRQTQWDPPTWESPGDDAS [W14H] | -0.615 ± 0.22
39 | SPPKPKTIVLPPNLKTARDPEGKIYYYHVITRQTQWDPPTWESPGDDAS [W14L] | -0.925 ± 0.06
40 | SPPKPKTIVLPPNMKTARDPEGKIYYYHVITRQTQWDPPTWESPGDDAS [W14M] | -0.721 ± 0.2
41 | SPPKPKTIVLPPNPKTARDPEGKIYYYHVITRQTQWDPPTWESPGDDAS [W14P] | -1.03 ± 0.32
42 | SPPKPKTIVLPPNQKTARDPEGKIYYYHVITRQTQWDPPTWESPGDDAS [W14Q] | -0.763 ± 0.24
43 | SPPKPKTIVLPPNSKTARDPEGKIYYYHVITRQTQWDPPTWESPGDDAS [W14S] | -0.925 ± 0.1
44 | SPPKPKTIVLPPNTKTARDPEGKIYYYHVITRQTQWDPPTWESPGDDAS [W14T] | -0.935 ± 0.19
45 | SPPKPKTIVLPPNVKTARDPEGKIYYYHVITRQTQWDPPTWESPGDDAS [W14V] | -0.882 ± 0.097
46 | SPPKPKTIVLPPNYKTARDPEGKIYYYHVITRQTQWDPPTWESPGDDAS [W14Y] | -0.566 ± 0.42
47 | SPPKPKTIVLPPNWHTARDPEGKIYYYHVITRQTQWDPPTWESPGDDAS [K15H] | -0.153 ± 0.41
48 | SPPKPKTIVLPPNWQTARDPEGKIYYYHVITRQTQWDPPTWESPGDDAS [K15Q] | -0.291 ± 0.26
49 | SPPKPKTIVLPPNWRTARDPEGKIYYYHVITRQTQWDPPTWESPGDDAS [K15R] | 0.11 ± 0.39
50 | SPPKPKTIVLPPNWKAARDPEGKIYYYHVITRQTQWDPPTWESPGDDAS [T16A] | 0.027 ± 0.041
51 | SPPKPKTIVLPPNWKCARDPEGKIYYYHVITRQTQWDPPTWESPGDDAS [T16C] | -0.213 ± 0.12
52 | SPPKPKTIVLPPNWKDARDPEGKIYYYHVITRQTQWDPPTWESPGDDAS [T16D] | -0.47 ± 0.091
53 | SPPKPKTIVLPPNWKGARDPEGKIYYYHVITRQTQWDPPTWESPGDDAS [T16G] | -0.203 ± 0.057
